A short description of the series: total protein half-life in vivo (active degradation + dilution); higher = more stable protein.
Where [1] appears, read: E. coli NCM3722 delta-clpP, growth: N-lim chemostat, doubling time 6 h.
The mark [2] stands for this setting: E. coli NCM3722 delta-hslV, growth: N-lim chemostat, doubling time 6 h.
Where [3] appears, read: wild type E. coli NCM3722, growth: N-lim chemostat, doubling time 6 h.
The mark [4] stands for this setting: wild type E. coli NCM3722, growth: P-lim chemostat, doubling time 6 h.
[5] abbreviates: E. coli NCM3722 delta-clpP delta-lon delta-hslV, growth: N-lim chemostat, doubling time 6 h.
Setting [6] is: E. coli NCM3722 delta-lon, growth: N-lim chemostat, doubling time 6 h.
Setting [7] is: E. coli NCM3722 delta-smpB, growth: N-lim chemostat, doubling time 6 h.
Setting [8] is: wild type E. coli NCM3722, growth: C-lim chemostat, doubling time 6 h.
[9] abbreviates: wild type E. coli NCM3722, growth: C-lim chemostat, doubling time 12 h.
Setting [10] is: wild type E. coli NCM3722, growth: N-lim chemostat, doubling time 12 h.
[11] abbreviates: wild type E. coli NCM3722, growth: P-lim chemostat, doubling time 12 h.
[12] abbreviates: wild type E. coli NCM3722, growth: C-lim chemostat, doubling time 3 h.

± gives the standard deviation of the averaged measurements. Where only a bound is given, the exact number is not on record here.

Consider “MAMETQDIIKRSATNSITPPSQVRDYKAEVAKLIDVSTCIGCKACQVACSEWNDIRDEVGHCVGVYDNPADLSAKSWTVMRFSETEQNGKLEWLIRKDGCMHCEDPGCLKACPSAGAIIQYANGIVDFQSENCIGCGYCIAGCPFNIPRLNKEDNRVYKCTLCVDRVSVGQEPACVKTCPTGAIHFGTKKEMLELAEQRVAKLKARGYEHAGVYNPEGVGGTHVMYVLHHADQPELYHGLPKDPKIDTSVSLWKGALKPLAAAGFIATFAGLIFHYIGIGPNKEVDDDEEDHHE [P0AAJ3]”, for which the “total protein half-life in vivo” value reads like this: under setting [1], 4.35 h; under setting [2], greater than 8 h; under setting [3], 3.95 h; under setting [4], 6.22 h.
Take “MDLRRFITLKTVVEEGSFLRASQKLCCTQSTVTFHIQQLEQEFSVQLFEKIGRRMCLTREGKKLLPHIYELTRVMDTLREAAKKESDPDGELRVVSGETLLSYRMPQVLQRFRQRAPKVRLSLQSLNCYVIRDALLNDEADVGVFYRVGNDDALNRRELGEQSLVLVASPQIADVDFTEPGRHNACSFIINEPQCVFRQIFESTLRQRRITVENTIELISIESIKRCVAANIGVSYLPRFAVAKELECGELIELPFGEQSQTITAMCAHHAGKAVSPAMHTFIQCVEESFVAG”: the “total protein half-life in vivo” value under setting [5] was 5.31 ± 0.83 h; the “total protein half-life in vivo” value under setting [1] is greater than 8 h; the “total protein half-life in vivo” value under setting [2] turned out to be 4.13 h; the “total protein half-life in vivo” value under setting [6] is 4.83 h; the “total protein half-life in vivo” value under setting [7] was 3.41 h; the “total protein half-life in vivo” value under setting [8] came out at 4.86 h. Also, the “total protein half-life in vivo” value is 8.259 ± 0.077 h under setting [9]; 4.37 ± 0.49 h under setting [3]; 6.51 h under setting [10]; 5.85 h under setting [4]; 7.91 h under setting [11].
As to “MKIAILSRDGTLYSCKRLREAAIQRGHLVEILDPLSCYMNINPAASSIHYKGRKLPHFDAVIPRIGTAITFYGTAALRQFEMLGSYPLNESVAIARARDKLRSMQLLARQGIDLPVTGIAHSPDDTSDLIDMVGGAPLVVKLVEGTQGIGVVLAETRQAAESVIDAFRGLNAHILVQEYIKEAQGCDIRCLVVGDEVVAAIERRAKEGDFRSNLHRGGAASVASITPQEREIAIKAARTMALDVAGVDILRANRGPLVMEVNASPGLEGIEKTTGIDIAGKMIRWIERHATTEYCLKTGG [P0C0U4]”, the “total protein half-life in vivo” value under setting [1] is 4.13 ± 0.23 h; the “total protein half-life in vivo” value under setting [2] came out at 3.76 ± 0.12 h; the “total protein half-life in vivo” value under setting [6] came out at 4.31 ± 0.27 h; the “total protein half-life in vivo” value under setting [7] amounted to 3.78 ± 0.36 h; the “total protein half-life in vivo” value under setting [12] was found to be 2.85 ± 0.062 h; the “total protein half-life in vivo” value under setting [8] came out at 5.3 ± 0.24 h. Besides, the “total protein half-life in vivo” value under setting [9] worked out at 10.9 ± 0.29 h, the “total protein half-life in vivo” value under setting [3] turned out to be 3.77 ± 0.19 h, the “total protein half-life in vivo” value under setting [10] turned out to be 6.029 ± 0.023 h and the “total protein half-life in vivo” value under setting [4] amounted to 5.56 ± 0.65 h.
Take “MIFTLRPYQQEAVDATLNHFRRHKTPAVIVLPTGAGKSLVIAELARLARGRVLVLAHVKELVAQNHAKYQALGLEADIFAAGLKRKESHGKVVFGSVQSVARNLDAFQGEFSLLIVDECHRIGDDEESQYQQILTHLTKVNPHLRLLGLTATPFRLGKGWIYQFHYHGMVRGDEKALFRDCIYELPLRYMIKHGYLTPPERLDMPVVQYDFSRLQAQSNGLFSEADLNRELKKQQRITPHIISQIMEFAATRKGVMIFAATVEHAKEIVGLLPAEDAALITGDTPGAERDVLIENFKAQRFRYLVNVAVLTTGFDAPHVDLIAILRPTESVSLYQQIVGRGLRLAPGKTDCLILDYAGNPHDLYAPEVGTPKGKSDNVPVQVFCPACGFANTFWGKTTADGTLIEHFGRRCQGWFEDDDGHREQCDFRFRFKNCPQCNAENDIAARRCRECDTVLVDPDDMLKAALRLKDALVLRCSGMSLQHGHDEKGEWLKITYYDEDGADVSERFRLQTPAQRTAFEQLFIRPHTRTPGIPLRWITAADILAQQALLRHPDFVVARMKGQYWQVREKVFDYEGRFRLAHELRG”: the “total protein half-life in vivo” value is, setting by setting: under setting [5], 5.4 ± 0.095 h; under setting [1], 4.39 ± 0.49 h; under setting [2], 3.55 ± 0.12 h; under setting [6], 3.9 ± 0.26 h; under setting [7], 3.3 ± 0.36 h; under setting [12], 2.79 ± 0.44 h. For the same sequence, the “total protein half-life in vivo” value under setting [8] stood at 4.38 ± 0.35 h; the “total protein half-life in vivo” value under setting [9] was found to be 7.46 ± 0.87 h; the “total protein half-life in vivo” value under setting [3] was determined as 3.38 ± 0.3 h; the “total protein half-life in vivo” value under setting [10] amounted to 5.32 ± 0.49 h; the “total protein half-life in vivo” value under setting [4] is 5.37 ± 0.26 h; the “total protein half-life in vivo” value under setting [11] is 10.1 ± 0.45 h.
In the case of “MSQVSTEFIPTRIAILTVSNRRGEEDDTSGHYLRDSAQEAGHHVVDKAIVKENRYAIRAQVSAWIASDDVQVVLITGGTGLTEGDQAPEALLPLFDREVEGFGEVFRMLSFEEIGTSTLQSRAVAGVANKTLIFAMPGSTKACRTAWENIIAPQLDARTRPCNFHPHLKK [P0AEZ9]”, the “total protein half-life in vivo” value under setting [5] amounted to 5.88 ± 0.086 h; the “total protein half-life in vivo” value under setting [1] was found to be 5.83 ± 0.34 h; the “total protein half-life in vivo” value under setting [2] stood at 5.23 ± 0.43 h; the “total protein half-life in vivo” value under setting [6] was determined as 5.076 ± 0.019 h; the “total protein half-life in vivo” value under setting [7] was found to be 4.7 ± 0.21 h; the “total protein half-life in vivo” value under setting [12] turned out to be 3.17 ± 0.28 h. The “total protein half-life in vivo” value is, setting by setting: under setting [8], 5.99 ± 0.53 h; under setting [9], 10.3 ± 1.4 h; under setting [3], 4.7 ± 0.53 h; under setting [10], 8.21 ± 0.61 h; under setting [4], 6.07 ± 0.18 h; under setting [11], 13.4 ± 0.48 h.
Consider “METKDLIVIGGGINGAGIAADAAGRGLSVLMLEAQDLACATSSASSKLIHGGLRYLEHYEFRLVSEALAEREVLLKMAPHIAFPMRFRLPHRPHLRPAWMIRIGLFMYDHLGKRTSLPGSTGLRFGANSVLKPEIKRGFEYSDCWVDDARLVLANAQMVVRKGGEVLTRTRATSARRENGLWIVEAEDIDTGKKYSWQARGLVNATGPWVKQFFDDGMHLPSPYGIRLIKGSHIVVPRVHTQKQAYILQNEDKRIVFVIPWMDEFSIIGTTDVEYKGDPKAVKIEESEINYLLNVYNTHFKKQLSRDDIVWTYSGVRPLCDDESDSPQAITRDYTLDIHDENGKAPLLSVFGGKLTTYRKLAEHALEKLTPYYQGIGPAWTKESVLPGGAIEGDRDDYAARLRRRYPFLTESLARHYARTYGSNSELLLGNAGTVSDLGEDFGHEFYEAELKYLVDHEWVRRADDALWRRTKQGMWLNADQQSRVSQWLVEYTQQRLSLAS”, for which the “total protein half-life in vivo” value came out at 6.86 ± 0.86 h under setting [5]; 5.96 ± 0.25 h under setting [1]; 2.71 ± 0.75 h under setting [2]; 2.76 ± 0.13 h under setting [6]; 2.4 ± 0.17 h under setting [7]; 2.1 ± 0.094 h under setting [12]. The “total protein half-life in vivo” value by setting is: under setting [8], 3.51 ± 0.53 h; under setting [9], 4.92 ± 0.65 h; under setting [3], 2.83 ± 0.088 h; under setting [10], 4.179 ± 0.033 h; under setting [4], 2.92 ± 0.053 h; under setting [11], 5.02 ± 0.13 h.
“MNLEKINELTAQDMAGVNAAILEQLNSDVQLINQLGYYIVSGGGKRIRPMIAVLAARAVGYEGNAHVTIAALIEFIHTATLLHDDVVDESDMRRGKATANAAFGNAASVLVGDFIYTRAFQMMTSLGSLKVLEVMSEAVNVIAEGEVLQLMNVNDPDITEENYMRVIYSKTARLFEAAAQCSGILAGCTPEEEKGLQDYGRYLGTAFQLIDDLLDYNADGEQLGKNVGDDLNEGKPTLPLLHAMHHGTPEQAQMIRTAIEQGNGRHLLEPVLEAMNACGSLEWTRQRAEEEADKAIAALQVLPDTPWREALIGLAHIAVQRDR [P0AD57]”: the “total protein half-life in vivo” value is 4.19 ± 0.56 h under setting [5]; 4.1 ± 0.06 h under setting [1]; 3.69 ± 0.19 h under setting [2]; 5.2 ± 0.3 h under setting [6]; 4.09 ± 0.18 h under setting [7]; 3.02 ± 0.1 h under setting [12]. Besides, the “total protein half-life in vivo” value was 5.42 ± 0.15 h under setting [8]; 9.86 ± 0.44 h under setting [9]; 3.93 ± 0.17 h under setting [3]; 6.372 ± 0.062 h under setting [10]; 5.64 ± 0.61 h under setting [4]; 11.4 ± 0.24 h under setting [11].

The record behind these values is the supplement of paper PMC11246515.
